Results published in patent US20230285583A1, “LIQUID FORMULATION OF LONG-ACTING CONJUGATE OF GLUCAGON, GLP-1, AND GIP TRIGONAL AGONIST” (HANMI PHARM, CO., LTD., priority 2020, published 2023).
Bridge positions count the residues as written; N and C are the ends. Square brackets hold non-standard residues; d marks the D form. Ends that are not written are not given here. * marks the point of attachment. Acetyl(2-(4-imidazolyl)) = O=C(Cc1c[nH]cn1)*; Aib = CC(C)(N)C(=O)O

T1: human GIP receptor (human, UniProt P48546 22-466)
T1 sequence (looked up): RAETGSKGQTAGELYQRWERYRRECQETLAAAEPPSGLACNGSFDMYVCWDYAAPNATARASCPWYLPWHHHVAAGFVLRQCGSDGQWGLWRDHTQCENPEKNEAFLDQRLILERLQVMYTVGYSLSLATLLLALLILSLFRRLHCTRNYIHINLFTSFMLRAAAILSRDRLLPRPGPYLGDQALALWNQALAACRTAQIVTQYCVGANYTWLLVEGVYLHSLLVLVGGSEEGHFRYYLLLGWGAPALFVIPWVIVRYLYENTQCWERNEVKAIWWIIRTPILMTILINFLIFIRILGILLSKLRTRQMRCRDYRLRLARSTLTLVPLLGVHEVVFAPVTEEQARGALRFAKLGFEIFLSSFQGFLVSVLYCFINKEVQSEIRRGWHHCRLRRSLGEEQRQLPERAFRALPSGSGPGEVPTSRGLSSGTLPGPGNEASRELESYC


Columns and labels:
Experiment in all cases: cell-based or functional assay
human GIP receptor = target: T1, human GIP receptor
human GLP-1 receptor = human GLP-1 receptor (human, UniProt P43220 24-463)
human GCG receptor = human GCG receptor (human, UniProt P47871 26-477)
Chain of human GCG receptor (P47871 26-477): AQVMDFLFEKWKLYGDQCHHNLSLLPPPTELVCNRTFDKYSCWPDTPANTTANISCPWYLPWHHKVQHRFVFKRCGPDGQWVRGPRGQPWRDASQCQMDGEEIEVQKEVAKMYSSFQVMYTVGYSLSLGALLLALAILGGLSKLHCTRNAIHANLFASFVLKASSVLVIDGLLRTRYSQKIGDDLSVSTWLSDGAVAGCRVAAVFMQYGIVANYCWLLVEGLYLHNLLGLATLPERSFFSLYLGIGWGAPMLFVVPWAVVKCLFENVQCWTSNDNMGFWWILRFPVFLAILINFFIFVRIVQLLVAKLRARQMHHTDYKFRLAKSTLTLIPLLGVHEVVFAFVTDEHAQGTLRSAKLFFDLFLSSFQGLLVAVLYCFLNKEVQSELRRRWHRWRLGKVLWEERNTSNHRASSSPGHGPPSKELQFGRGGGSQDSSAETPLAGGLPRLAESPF

| Binder | In Vitro Activity Compared to Native Peptide (%) vs. GIP (relative titer from cAMP EC50) (human GIP receptor) [%] | In Vitro Activity Compared to Native Peptide (%) vs. GLP-1 (relative titer from cAMP EC50) (human GLP-1 receptor) [%] | In Vitro Activity Compared to Native Peptide (%) vs. Glucagon (relative titer from cAMP EC50) (human GCG receptor) [%] |
| --- | --- | --- | --- |
| H[Aib]QGTFTSDYSKYLDEKRQKEFVQWLLDTKC (bridge 16-20; not fully specified (bridges)) [trigonal agonist of SEQ ID NO: 33] | 0.12 | 51 | 14 |
| Y[Aib]QGTFTSDYSKYLDEKAAKDFVQWLLDHHPSSGQPPPSC (bridge 16-20; not fully specified (bridges)) [trigonal agonist of SEQ ID NO: 32] | 35.5 | 38.7 | 12.2 |
| Y[Aib]QGTFTSDYSKYLDEKRAKDFVQWLLDHHPSSGQPPPSC (bridge 16-20; not fully specified (bridges)) [trigonal agonist of SEQ ID NO: 31] | 11.7 | 10.3 | 47.6 |
| H[Aib]QGTFTSDYSIAMDEIHQKDFVNWLLAQC (lactam 16-20) [trigonal agonist of SEQ ID NO: 16] | 2.4 | 27.1 | 0.7 |
| H[Aib]QGTFTSDYSKYLDEKRQKEFVQWLLDTC (bridge 16-20; not fully specified (bridges)) [trigonal agonist of SEQ ID NO: 13] | 0.3 | 44.1 | 7.5 |
| H[Aib]QGTFTSDYSKYLDEKRQKEFVQWLLNTKC (bridge 16-20; not fully specified (bridges)) [trigonal agonist of SEQ ID NO: 18] | 0.2 | 39.1 | 2.6 |
| Y[Aib]QGTFTSDYSKYLDECAAKEFVQWLLDHHPSSGQPPPS (bridge 16-20; not fully specified (bridges)) [trigonal agonist of SEQ ID NO: 19] | 92.9 | 64.6 | 60.1 |
| [Acetyl(2-(4-imidazolyl))][Aib]QGTFTSDYSKCLDEKRAKEFVQWLLDHHPSSGQPPPS (bridge 16-20; not fully specified (bridges)) [trigonal agonist of SEQ ID NO: 29] | 1 | 12.9 | 0.9 |
| Y[Aib]QGTFTSDYSKYLDECRAKDFVQWLLDHHPSSGQPPPS (bridge 16-20; not fully specified (bridges)) [trigonal agonist of SEQ ID NO: 21] | 17.2 | 15.8 | 172 |
| H[Aib]EGTFTSDYSIAMDEIHQKDFVDWLLAEC (bridge 16-20; not fully specified (bridges)) [trigonal agonist of SEQ ID NO: 15] | 0.1 | 30.6 | 1.4 |
| Y[Aib]QGTFTSDYSKYLDERACKDFVQWLLDHHPSSGQPPPS (bridge 16-20; not fully specified (bridges); ends not checked) [trigonal agonist of SEQ ID NO: 26] | 94.7 | 90.1 | 12.7 |
| Y[Aib]QGTFTSDYSKCLDEKRAKEFVQWLLDHHPSSGQPPPS (bridge 16-20; not fully specified (bridges)) [trigonal agonist of SEQ ID NO: 2] | 59.7 | 20.1 | 140 |
| Y[Aib]QGTFTSDCSKYLDERAAKDFVQWLLDHHPSSGQPPPS (bridge 16-20; not fully specified (bridges); ends not checked) [trigonal agonist of SEQ ID NO: 27] | 1.6 | 11.5 | 1 |
| H[Aib]QGTFTSDYSKYLDEKAQKEFVQWLLDTC (bridge 16-20; not fully specified (bridges)) [trigonal agonist of SEQ ID NO: 3] | 0.8 | 142 | 0.7 |
| H[Aib]QGTFTSDYSKYLDEKRQKEFVNWLLAQC (bridge 16-20; not fully specified (bridges)) [trigonal agonist of SEQ ID NO: 17] | 0.8 | 57.9 | 4.9 |
| H[Aib]EGTFTSDYSIAMDEIHQKDFVNWLLAQC (lactam 16-20) [trigonal agonist of SEQ ID NO: 14] | 1.3 | 161 | 8.4 |
| [Acetyl(2-(4-imidazolyl))][Aib]QGTFTSDYSKYLDECRAKEFVQWLLDHHPSSGQPPPS (bridge 16-20; not fully specified (bridges)) [trigonal agonist of SEQ ID NO: 28] | 3 | 22.6 | 5.4 |
| Y[Aib]QGTFTSDYSKYLDEKAAKEFVQWLLDHHPSSGQPPPSC (bridge 16-20; not fully specified (bridges)) [trigonal agonist of SEQ ID NO: 30] | 18 | 35.1 | 8.5 |
| H[Aib]QGTFTSDYSKCLDEKRAKEFVQWLLDHHPSSGQPPPS (bridge 16-20; not fully specified (bridges)) [trigonal agonist of SEQ ID NO: 20] | 11.6 | 95.4 | 25.2 |
| Y[Aib]QGTFTSDYSKCLDERAAKEFVQWLLDHHPSSGQPPPS (bridge 16-20; not fully specified (bridges)) [trigonal agonist of SEQ ID NO: 24] | 62.8 | 24.3 | 9.6 |
| Y[Aib]QGTFTSDYSKCLDEKAAKEFVQWLLDHHPSSGQPPPS (bridge 16-20; not fully specified (bridges)) [trigonal agonist of SEQ ID NO: 23] | 107 | 27.9 | 8.8 |
| Y[Aib]QGTFTSDYSKCLDEKRAKDFVQWLLDHHPSSGQPPPS (bridge 16-20; not fully specified (bridges); ends not checked) [trigonal agonist of SEQ ID NO: 25] | 64.4 | 15.1 | 71.3 |
| Y[Aib]QGTFTSDYSKYLDECAAKDFVQWLLDHHPSSGQPPPS (bridge 16-20; not fully specified (bridges)) [trigonal agonist of SEQ ID NO: 22] | 39.8 | 28.5 | 46.2 |
